Test results: paper doi:10.1101/2021.08.19.457009 (bioRxiv, 2021)
Positions count from the first letter of the chain named. In names and notes the source's numbering stands. One block for each molecule: values may come before it. Non-standard residues stand in square brackets, D forms with d. No end group written: not given here. pS = N[C@@H](COP(=O)(O)O)C(=O)O

Experiments:
human 6His-14-3-3ζ [1] = target: T1, human 6His-14-3-3ζ (human, UniProt P63104 1-245); experiment: pull-down
T1 sequence (looked up): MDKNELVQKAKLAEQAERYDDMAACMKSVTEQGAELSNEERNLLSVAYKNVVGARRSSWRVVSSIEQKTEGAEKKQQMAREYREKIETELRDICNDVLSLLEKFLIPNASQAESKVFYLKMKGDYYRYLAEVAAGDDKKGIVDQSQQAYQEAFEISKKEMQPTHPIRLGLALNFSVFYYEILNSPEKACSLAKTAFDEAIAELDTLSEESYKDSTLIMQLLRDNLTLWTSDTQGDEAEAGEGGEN

human 6His-14-3-3ζ [2] = target: T1, human 6His-14-3-3ζ; experiment: ITC

amount pulled down relative to CT (598-910) (human 6His-14-3-3ζ [1]): 0.23 fold
Molecule: SNAP-TM-HCN1CT reporter also lacking the region containing peptide B (residues 790-820) (domain or fragment)

amount pulled down relative to CT (598-910) (human 6His-14-3-3ζ [1]): 0.61 fold
Molecule: SNAP-TM-HCN1CT reporter lacking the region containing peptide C (amino acids 850-880) (domain or fragment)

amount pulled down relative to CT (598-910) (human 6His-14-3-3ζ [1]): 1.18 fold
Molecule: SNAP-TM-HCN1CT reporter lacking the distal 30 amino acid block with the TRIP8b-tripeptide binding site (domain or fragment)

amount pulled down relative to CT_(731-910) (human 6His-14-3-3ζ [1]): 0.26 fold
B1: SNAP-TM-HCN1CT reporter CT_(731-910; Δ804-814; Δ861-871) (domain or fragment, mouse, UniProt O88704 731-910, looked up)
chain: VQQTQTQTQQQQQQQQQQQQQQQQQQQQQQQQQQQQQQQQQQQQQPQTPGSSTPKNEVHKSTQALHNTNLTKEPHEVSTLISRPHPTVGESLASIPQPVAAVHSTGLQAGSRSTVPQRVPPNRGVPPAPPPPAAVQRESPSVLNTDPDAEKPRFASNL

Kd (human 6His-14-3-3ζ [2]): 25 µM
Molecule: VRPLSA[pS]QPSL [HCN1 phospho-peptide B]

Kd (human 6His-14-3-3ζ [2]): 15 µM
Molecule: TLFRQM[pS]SGAI [HCN1 phospho-peptide C]

amount pulled down relative to CT_(598-910) (human 6His-14-3-3ζ [1]): 1.39 fold
B2: SNAP-TM-HCN1CT reporter CT_(731-910) (domain or fragment, mouse, UniProt O88704 731-910, looked up)
chain: VQQTQTQTQQQQQQQQQQQQQQQQQQQQQQQQQQQQQQQQQQQQQPQTPGSSTPKNEVHKSTQALHNTNLTKEVRPLSASQPSLPHEVSTLISRPHPTVGESLASIPQPVAAVHSTGLQAGSRSTVPQRVTLFRQMSSGAIPPNRGVPPAPPPPAAVQRESPSVLNTDPDAEKPRFASNL

amount pulled down relative to CT_(731-910) (human 6His-14-3-3ζ [1]): 0.33 fold
B3: SNAP-TM-HCN1CT reporter CT_(731-910; S810A; S867A) (domain or fragment, mouse, UniProt O88704 731-910, looked up)
chain: B2 chain with S80A, S137A

Kd (human 6His-14-3-3ζ [2]): 16 µM
Molecule: SRMRTQ[pS]PPVY [HCN1 phospho-peptide A]

amount pulled down relative to CT_(598-910) (human 6His-14-3-3ζ [1]): 0.2 fold
B4: SNAP-TM-HCN1CT reporter truncated of residues 803-910 (domain or fragment, mouse, UniProt O88704 598-802, looked up)
chain: LNTGVFNNQENEILKQIVKHDREMVQAIPPINYPQMTALNCTSSTTTPTSRMRTQSPPVYTATSLSHSNLHSPSPSTQTPQPSAILSPCSYTTAVCSPPIQSPLATRTFHYASPTASQLSLMQQPQQQLPQSQVQQTQTQTQQQQQQQQQQQQQQQQQQQQQQQQQQQQQQQQQQQQQPQTPGSSTPKNEVHKSTQALHNTNLTK
